Laboratory results from article PMC3344845, “Structure of Bradavidin – C-Terminal Residues Act as Intrinsic Ligands” (PLoS ONE, 2012).
pKd: −log10 of the molar value.

Experiments:
[1] = target: Brad-tag–EGFP–His-tag fusion protein (Bradyrhizobium japonicum); test: BLI; Octet RED384; Brad-tag–EGFP–His-tag (0.03 mg/ml, 700 s) held on anti-Penta-HIS biosensors; higher concentrations: core-bradavidin 0.5, wt bradavidin 1.2, avidin 1.8, streptavidin 1.7, rhizavidin 2.0 mg/ml for 200 s; controls with biotin (3.2 mM for core-bradavidin, 13 mM for avidin) and plain sensors; 30°C
[2] = target: core-bradavidin (Bradyrhizobium japonicum); test: ITC; core-bradavidin in the cell, ligand (Brad-tag or Brad-tag–EGFP) in the syringe, 15°C, 50 mM sodium phosphate pH 7.0, 100 mM NaCl; n is the stoichiometry per subunit
[3] = target: core-bradavidin (Bradyrhizobium japonicum); test: ITC; core-bradavidin in the cell, Brad-tag–EGFP in the syringe, 25°C, 50 mM sodium phosphate pH 7.0, 100 mM NaCl; n is the stoichiometry per subunit

| Substance | shift (BLI response) [1] [nm] | pKd [2] | dH [2] [kcal mol^–1] | stoichiometry N [2] | pKd [3] | dH [3] [kcal mol^–1] | stoichiometry N [3] |
| --- | --- | --- | --- | --- | --- | --- | --- |
| core-bradavidin (domain or fragment) | 1.2 |  |  |  |  |  |  |
| Brad-tag–EGFP fusion protein (without His-tag) |  | 5.55 | -0.5 | 0.68 | 5.51 | -1 | 0.68 |
